First the molecules themselves.
B1: mAb 2E11 (IgG) (antibody, V domains shown)
VH: SVELIESGGGVVQPGRSLRLSCAASGFTFSNYAMHWVRQAPGKGLEWVAFISYDGSNKYYADSVKGRFTISRDNSKNTLSLQMNSLRAEDTALYYCARVFNGYEGDYWGQGTLVTVSS
VL: LPVLTQPPSVSVSPGQTARITCSGDALPKKYAYWYQQKSGQAPVLVIYEDSKRPSGIPERFSGSSSGTMATLTISGAQVEDEADYYCYSTDSSGNLYVFGTGTKVTVL
B2: mAb 4B8 (IgG) (antibody, V domains shown)
VH: EVQLVESGGGLIQPGGSLRLSCAASGFTISSKYMSWVRQAPGKGLEWVSIIYSSGSTYYADSVKGRFTISRDISKNTLYLQMNSLRAEDTAVYYCASLGSGSAFGYWGQGTLVTVSS
VL: DIVMTQSPSSVSASVGDRVTITCRASQGISTWLAWYQQKPGKAPRLLIYAASSLQSGVPSRFSGSGSGTDFTLTISSLQPEDFATYYCQQANSFPFTFGPGTKVEIK
B3: mAb 3G2 (IgG) (antibody, V domains shown)
VH: EVQLLESGGGLIQPGGSLRLSCAASGLTVSNNYMNWVRQAPGKGLEWVSIIYSSGSTYYADSVKGRFTISRDTRKNTLYLQMHSLRVEDTAVYYCARERGWLDYWGQGTLVTVSS
VL: VIWMTQSPSSLSASVGDRVTITCRASQSVSSHLNWYQQKPGKAPKLLIYAVSSLQSGVPSRFSGGDSGTDFTLTIASLQPEDFATYYCQQTYTIPRTFGQGTKVEIK
B4: mAb 4F10 (IgG) (antibody, V domains shown)
VH: EVQLLESGPGLVKPSQTLSLTCTVSGGSISSGGYYWSWIRQHPGKGLEWIGYIYYSGSTYYNPSLKSRVAMSVDTSKNQFSLTLSSVTAADTAVYYCARAIDNFYDNSIWGQGTLVTVSS
VL: DIQMTQSPSSLSASVGDRVTIACRASQSITNFLNWYQQKPGKAPKLLIYAVSNLQSGVPSRFSGSGSGTDFTLTISSVRPEDFATYFCQQSYSPPYTFGQGTKVDIK
B5: mAb 14G5 (IgG) (antibody, V domains shown)
VH: QVQLVQSGAEVKKPGESLKISCKGSGYSFTSYWIGWVRQMPGKGLEWMGIIYPGDSDTRYSPSFQGQVTMSADRSISTAYLQWSSLKASDTAMYYCARSNVDGSTDYWGQGTLVTVSS
VL: SYELTQPPSVSVSPGQTARITCSGDALPKQYAFWYQQKPGQAPVLVIYKDSERPSGIPERFSGSSSGTTVTLTISGVQAEDEADYYCQSADSSDTYVPYVFGTGTKVTVL
B6: Fab 2E11 (Fab, V domains shown)
VH: B1 VH
VL: B1 VL
B7: Fab 4B8 (Fab, V domains shown)
VH: B2 VH
VL: B2 VL
B8: Fab 3G2 (Fab, V domains shown)
VH: B3 VH
VL: B3 VL
B9: Fab 4F10 (Fab, V domains shown)
VH: B4 VH
VL: B4 VL
B10: Fab 14G5 (Fab, V domains shown)
VH: B5 VH
VL: B5 VL

Several values for one entry are separate records, joined by “and”; a condition that tells them apart may be missing. Equal values may be shown once.

DENV2 NS1, sequence (P29990 776-1127): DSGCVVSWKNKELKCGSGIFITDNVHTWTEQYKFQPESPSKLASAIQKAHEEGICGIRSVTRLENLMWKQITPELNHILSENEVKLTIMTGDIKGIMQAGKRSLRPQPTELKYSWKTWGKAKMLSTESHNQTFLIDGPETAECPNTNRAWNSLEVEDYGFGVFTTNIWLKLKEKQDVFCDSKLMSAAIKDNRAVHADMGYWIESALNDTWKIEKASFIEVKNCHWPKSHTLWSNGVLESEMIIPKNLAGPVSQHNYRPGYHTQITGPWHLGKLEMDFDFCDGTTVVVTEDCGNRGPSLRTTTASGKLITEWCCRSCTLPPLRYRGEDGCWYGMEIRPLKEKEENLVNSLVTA

In the first test the target is cell-surface ZIKV NS1 (Zika virus, strain ; stand-in …, UniProt A0A146CJG7). Put plainly: flow cytometry on cells.
With B1, the “percentage of cell staining at 10 ug/ml” value worked out at 59%.
As to B2, the “percentage of cell staining at 10 ug/ml” value stood at 70%.
For B3, the “percentage of cell staining at 10 ug/ml” value came to 76%.
Take B4: the “percentage of cell staining at 10 ug/ml” value came out at 58%.
With B5, the “percentage of cell staining at 10 ug/ml” value was 63%.

A further test concerns the target recombinant ZIKV sNS1 (full-length ZIKV NS1, residues 3-352, GZ02 strain) (Zika virus (GZ02 strain)). The test is described as follows: negative staining EM.
With “recombinant ZIKV sNS1 (full-length ZIKV NS1, residues 3-352, GZ02 strain) (natural protein)”, the stoichiometry N came out at 4.

A further test has as its target DENV2 NS1 (Dengue virus 2, strain ; …, UniProt P29990). Put plainly: ELISA.
On to B4, for which the binding result is “binds”.

The target of a further test is DENV4 NS1 (Dengue virus 4, strain ; …, UniProt P09866). Put plainly: ELISA.
DENV4 NS1, sequence (P09866 775-1126): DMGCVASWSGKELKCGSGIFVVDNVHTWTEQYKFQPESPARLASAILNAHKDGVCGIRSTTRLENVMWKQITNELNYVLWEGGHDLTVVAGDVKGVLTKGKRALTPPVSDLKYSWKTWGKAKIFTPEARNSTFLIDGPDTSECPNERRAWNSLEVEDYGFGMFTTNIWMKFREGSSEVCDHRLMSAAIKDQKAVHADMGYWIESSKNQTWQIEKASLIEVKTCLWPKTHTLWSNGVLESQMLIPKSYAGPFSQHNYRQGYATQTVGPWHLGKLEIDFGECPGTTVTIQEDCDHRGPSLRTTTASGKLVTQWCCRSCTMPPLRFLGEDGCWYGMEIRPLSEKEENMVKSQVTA
Regarding B4, the binding result is “binds”.

The target of a further test is ZIKV-derived sNS1 (Zika virus, strain ; stand-in …, UniProt A0A146CJG7). The test is described as follows: ELISA.
As to B1, the affinity, expressed as Kd, was 0.22 ± 0.04 nM.
B2 came in with a Kd of 0.8 ± 0.33 nM.
B3 showed a Kd of 0.12 ± 0.02 nM. Compared with the last molecule, the Kd is about 6.7-fold lower.
For the molecule B4, the Kd was 0.06 ± 0.01 nM. This Kd lies about 2-fold lower than the previous one.
Regarding B5, the Kd was found to be 0.15 ± 0.03 nM.

The target of the next test is recombinant ZIKV sNS1 (full-length ZIKV NS1, residues 3-352, GZ02 strain) (Zika virus, strain GZ02, UniProt A0A146CJG7, strain). Put plainly: cryo-EM structure.
As for B6, the “stoichiometry N” value is 1 ratio Fab to NS1.
Turning to B7, the “stoichiometry N” value is 1 ratio Fab to NS1 and 4 copies of Fab fragment for each NS1 tetramer.
Still for that read-out and setting: the value for B8 was 1 ratio Fab to NS1 and 4 copies of Fab fragment for each NS1 tetramer.
B9: the “stoichiometry N” value was 1 ratio Fab to NS1.
Same read-out and setting: the value for B10 was 1 ratio Fab to NS1.

These data come from doi:10.1101/2023.10.16.562450 (bioRxiv, 2023).
